Experimental data reported in the DeepSol protein solubility set.

Experiment: soluble on expression in E. coli; label from the status in PepcDB or PDB records

Sequence	soluble on expression in E. coli
MPAGLVISAPASGVGKTTLTLALARAWRNRGLSVQCFKSGPDYIDPAFHAAATGRASVNVDSWAMDRGGIAHLVGRGADADVVLAEGSMGLFDGVAARGVSGTGATADIAEMLGWPVLLVIDPSGQAQTAAAIAAGLRDYRPGVRLAGVVLNRVASPRHEDLVRRALDDAGIAVFGALPRHAEISLPKRHLGLVQAEEQAEIGKLIDEAARFVAEHVDLDAVLQSAAAWAPQPAANGLNVTPPGQRIALARDAAFSFVYPHMLEAWRAAGADISTFSPLADEAPDASADVCWLPGGYPELHAGKIAANARFCSGLRAFAETRPVHGECGGYMVLGTALTDADGVRHEMAGLLGLETSFAKRRMHLGYRLAELAAPMPGHSPGARLRGHEFHYSTIAAQPDMPLAVVHDATGAVIAETGSRRGNATGTFFHLIAEDRLEHHHHHH	soluble
MPAVAFPVSSPRLLARAVQIAVLAMGALCVGCQSVDYSPPRQDRPPRLVSGLVYWGGDDKEGSRAADKISDLPVYNGEDVWQRVAQRCRLVDGQGMNERIARQRDWLLSNRGFITGASVRASPYLHFIVERLDERNMPLELALLPMIESSYNPMANSPAAAAGLWQFIPSTGRSFNLHQSATYDARRDVVASSKAAMDYLTRLHDQFNNDWLLALAAYNAGEGTVGRAIEANRRRGLPVDYWNLNLPKETQDYVPRLLALSMVVRNPNAYGVKLTPVANTPYFDVVELNHAVDLTQLAATAGVDEGQLLRLNSAFLRKKTFDGPGRLLIPKTQNRVLTTSIARITGESPVTASIPLVTPSAIVKRAAERLPAPAPVAERPVRVAERPPLPKPVQSAQLAENLPSPKTAQPLPVAQQPTAPEALQPAPAAESAPAVEIAQSAPVVEPDPLTNRIQLPRIRDDRSSPRKRDDDEYRSGPRELPTGPRVVVFASDPRQLEHHHHHH	not soluble
MPCSEETPAISPSKRARPAEVGGMQLRFARLSEHATAPTRGSARAAGYDLYSAYDYTIPPMEKAVVKTDIQIALPSGCYGRVAPRSGLAAKHFIDVGAGVIDEDYRGNVGVVLFNFGKEKFEVKKGDRIAQLICERIFYPEIEEVQALDDTERGSGGFGSTGKN	soluble
MPDFAKQGPIVIGGVGGSGTRLIAEIVMDMGFYLGGMLNQSKDLLYFSLLFKRPTWFSKVVTSNEQEIFRGLKILENRLTTQKELTGKDIKFIEKAAQTYRNGDLLAQKIKKNMLFPDPINRQLYRGWGWKEPNAHLFLPYIHRYFPNGKYIHVIRNGLNMAFSKNQQQLFNWGPLFGVTIPNNPMKIPNASLTYWIKANERAVMYGTEQMKGRFLLIQFDQLCVNPTPQLQKLAEFLAVDDLAIDEWSEKIDPAAAASKYKEADLEHHHHHH	not soluble
MPDHARMPRNLSSNKIAKTIAGEDLDEEEVLEMDAGQSAREEGRFVFECAWEVANKVGGIYTVLRSKAQISTEELGDQYCMFGPMKDGKWRLEVDPIEPENRTIRAAMKRFQADGFRCMYGRWLIEGYPKVILFDLGSGAVKMNEWKHELFEQCKIGIPHEDIESNDAVILGFMVALFLKHFRESVTSYTPLVVAHFHEWQAGVGLLMTRLWKLDIATVYTTHATLLGRHLCAGGADLYNNLDSFDLDAEAGKRKIYHQYCLERAACQTAHIFTTVSEITGLEAEHFLCRKPDVLTPNGLNVVKFAALHEFQNLHAQNKEKINQFIRGHFHGHLDFDLDKTLYFFTAGRYEFSNKGGDMFIESLARLNHYLKTTSDPRHMGVTVVAFLIYPAPANSFNVESLKGQAVTKQLKEAVDRIKEKVGQRIFDICLQGHLPEPEELMSPADNILLKRCIMSLHNSSLPPICTHNMIRADDPVLESLRRTSLFNKPEDRVKVVFHPEFLSSVSPLIGLDYEDFVRGCHLGVFPSYYEPWGYTPAECTVMGIPSVSTNLSGFGCFMQEHVEDHEQKGIYVIDRRHKAAEESVQELAQVMYDFCGQSRRQRIILRNSNEGLSALLDWQNLGVFYRDCRRLALERLHPDVDKIMRDNEGKVPSAATSRRPSIHSSDGEDDE	not soluble
MPDLAGDLAAVLPPRPDTPGGEALPTDSGDVLRQGDILGRRVQSVRLGWDQLTSVQLWMCEQVLGIESAAEDEKPRRTRADKWALNYQAAKQFYEREGHLQVARKWVERIVIGGDGDGGDDKEEREHKLGARIGIQRSRAATPTPERMELLSAIGMRWSLEHHHHHH	not soluble
MPEEESIDIKFRLYDGSDIGPFRYSAASTVDFLKQRVVSDWPKGKTVVPKGINEVKLISSGKILENNKTVGQCKTPFGDIAGGVIVMHVVVQPSLAKSKTEKKVDKAPKAVICTCTIL	soluble
MPEIITPIITPFTKDNRIDKEKLKIHAENLIRKGIDKLFVNGTTGLGPSLSPEEKLENLKAVYDVTNKIIFQVGGLNLDDAIRLAKLSKDFDIVGIASYAPYYYPRMSEKHLVKYFKTLCEVSPHPVYLYNYPTATGKDIDAKVAKEIGCFTGVKDTIENIIHTLDYKRLNPNMLVYSGSDMLIATVASTGLDGNVAAGSNYLPEVTVTIKKLAMERKIDEALKLQFLHDEVIEASRIFGSLSSNYVLTKYFQGYDLGYPRPPIFPLDDEEERQLIKKVEGIRAKLVELKILKE	soluble
MPELDESASFAELLEAHAGGTRNVRPGDRISAAIVAITDDSVFVATGSKVDGVIDRRELEEADGSLPYAVGDRVDLYVTAVNGQEIRLSKGLSGQGGAAVLEEARDSGVPVEGRVTGTCKGGYNVDVLRKRAFCPGSQIDLHQLEDAESVVGQTFQFLVTRVEQHGRNIVVSRRALLERERDAALATFLEGVKEGDVLEGTVTRLAPFGAFVEIAPGVDGMVLEHHHHHH	not soluble
MPELPEVETTRRRLRPLVLGQTLRQVVHRDPARYRNTALAEGRRILEVDRRGKFLLFALEGGVELVAHLGMTGGFRLEPTPHTRAALVLEGRTLYFHDPRRFGRLFGVRRGDYREIPLLLRLGPEPLSEAFAFPGFFRGLKESARPLKALLLDQRLAAGVGNIYADEALFRARLSPFRPARSLTEEEARRLYRALREVLAEAVELGGSTLSDQSYRQPDGLPGGFQTRHAVYGREGLPCPACGRPVERRVVAGRGTHFCPTCQGEGP	soluble
MPEMPEDMEQEEVNIPNRRVLVTGATGLLGRAVHKEFQQNNWHAVGCGFRRARPKFEQVNLLDSNAVHHIIHDFQPHVIVHCAAERRPDVVENQPDAASQLNVDASGNLAKEAAAVGAFLIYISSDYVFDGTNPPYREEDIPAPLNLYGKTKLDGEKAVLENNLGAAVLRIPILYGEVEKLEESAVTVMFDKVQFSNKSANMDHWQQRFPTHVKDVATVCRQLAEKRMLDPSIKGTFHWSGNEQMTKYEMACAIADAFNLPSSHLRPITDSPVLGAQRPRNTQLDCSKLETLGIGQRTPFRIGIKESLWPFLIDKRWRQTVFH	not soluble
MPERYTGSDGKTYLFKGWYKGNAKPSTLETTKTPSYAVTYDDNDDLHVVYEEAVMKTYTLPAREALFGYVDEQGNLINPAKFKLSATMGESDGATGEMTTFPTIDGIDMPASQLKKLAIPQKVYTRPDDGTIVTYGPQEVSVEIPKYYQTISISPTTAYTGDKTKYPVPNEVRRGIENPDNIVSSLVGTTAYNLTQKSATRYTARRSYWTWGPTKTLYSMSIYSGTAGGNYNLSTPDGTIYYYLENRRVTEHFVDESGAKITPPTGFTQGNQLVVDSENYVYTVAKALPKIYQAGEKTYIFQGWFKGKTKPATLKTTTTPSFTPTFNDEDDMTAVYQEAIPTAELTLTGAVDIIENGATMDYWEALLKNTGEAPLTTIKIKPTATWAAGIGAPNTIFVQGTGQNTKAFPVTKEQWTTGAGVSITLDQPLPAGGQLKMNLLGTAVTGNPGQVLTADVEVTGNFGSLTAKDTVRIKDLDQEITSPDGDGFISTPTFDFGKLAISGSKQQYGLKKAADYYGNGTRNPYLRLNTSQANWSLTAQLSQPKSATDSLPTTTRLLLGTAAAASFTDYNQPTETRTPLGKTSTVTLTADNTATAVVANQQFTGSDVYQLDFTFANIKLEVPANQGMAGQQYQAAVTWNLVTGP	not soluble
MPETELHVIFDQPNEVFFPGQPISGRVVLSTTKEKYKARAVNIKILGLAHTSWTDYESVRRVDADGKVSHHRQSVHYSANVNYLDYTLLLWACKDGSNELAAGEYAWSFSYNLPLNVPPSFEGKYGYLRYSVTAEVDRPWRLDKAKKRCITVSPLIDLNVIPHALTQINDQASENLGCCCFKKGYLELRVNIPKTGFVPGETVPMNIHILNHSSVPVTEVKAKIIQQCKFIAYRNGTTFHYGGGYETGMSGQLQETKHDTKTVVKHGQEMTVAPRNEHKFAMELRLPSVTPTINQFSPVITVEYIVQFHVETSSTFGSDVDCEMGILIGTVPIRQFLPPAYYPQDPNLPQILPTPIGGGVVAPPPGYGFLPMADGSEKGAGDASYPAASMPMYPIPNVPYPSKDDGTVVIPSAPPLSYEESMFGQDGTELNTDENEQPFAPKYPVFNNLPVYNPTAPPPE	not soluble
MPEVSFIICTRNRVAVLEACLKSVQAACRAHAGFAAELVVVDNGSSDRTAERLASIAAMSDIPFTPVSEPRRGLAAARNAGLRRARGRVLVFVDDDCAVHCDYLRDLERHYASGEQGLIRGGRVELGDPRDLPFTIKRSRVCERLTPDIHPGGFVLGCNMTMHRDVAARIGDFDERFGAGGPLRSAEDTDYLVRAVLLGIPVEYVPDMTIFHHHGRRDRKAIEKLHRDYSLGNGGLCLKHIRHAPWLLRHFYWAARGALRELAGGPAFDRDLDLSHRPIVGMNVLGAARYALLLLARRPQAEPARQDQQANAEAPLLEHHHHHH	not soluble
MPFVPVAALKDYVGKDLGHSEWLTIDQERVDQFAECTGDHQFIHVDPEKAAKTPFGGTIAHGFLSLSLIPKLMEGLLVLPEGLKMAVNYGLDTVRFIQPVRVGSRVRLGLTLLDVNEKNPGQWLIKARATLEIEGQEKPAYIAETLSLCFV	not soluble
MPGGRGRIGVILPANNAGMEYDLWKMAPEGVSIHSTRMKPTKGCEPENVEEFEKELKYSYSLLAEVSDIIIYGRTYGTHKHAHVIKRVIKDVVIPEESVYELLKKLNVRKLWIGTPYIKERTLEEVEWWRNKGFEIVGYDGLGKIRGIDISNTPIFTIYRLVKRHLNEVLKADAVYIACTALSTYEAVQYLHEDLDMPVVSENAAAMWEALNKLKIKAKLPGF	soluble
MPHIVKSTILDAPTDAAWSVLRDFNGHDRWHPAVATSMIERAQPSDKIGCVRRFKLKDGSELREQLLALSDLEQSFSYCLLDTPVPMFNYVAHVRLLPVTDGDRTFWHWESRFTTRPEDKDRITHMVAEDIYQAGFEAIRRHLKEAASSWPLEHHHHHH	soluble
MPHPAPNAAAPRVHIIGAGMAGLACAVRLVSHGRAVSLHEAAGQAGGRCRSFVDASLDRLIDNGNHLLLSGNRAVNAFLATIGASDRLDGPERARFPFLDVETGERWCLTPSAGPVPWWLLRADRRIPGTRARDYLEGLKLARASDADRVADLLTPGTPLYRRFWAPLTVGVLNAAPEEAAAALLWPVIKETFGRGEAACRPRMARNGLSDSFVTPALAWLTARGAEIAFNHRLRAIEYGDGRPAALVFSEETPLRLGPADQVVLAVPPAVAAGLLPGLTVPEGSRCIVNAHFRLDHAPEGFADDFEGPLGVIGGTAEWLFVRGDVASVTVSAADALAALDPDEIAARIWRDVALALGLDAAARPPVRIIKEKRATFAQTPDQLCRRPPTRPPGYGLCLAGDWTHTGLPATIEGALRSGEAAADAALHWRFTLEHHHHHH	not soluble
MPHSQTSAPRDSLAGVRLARGASPWLLPTVATAAVSLLRARRSGTAKAVAVPATALAAGMLWFFRDPEREITQGRVVSPADGVVQSIMPWKDGRTRVAIFMSPLNVHVNRAPLAGTVTSVEHVPGGFVPAFNKESENNERVVWHFDTELGDIEMIQIAGAVARRIVPYVPQGTKVEQGERVGLIRFGSRVDLYLPEGVEVDVEVGQKTVAGVTRIDRDLEHHHHHH	not soluble
